Experimental findings from paper PMC3164098 (2011) are described below.

The target of this assay is T1, 12/1 peptide.
T1 chain: MPRFMDYWEGLN-NH2
Put plainly: ITC. On the technique in general: In ITC the heat of successive injections is recorded.

The Kd is the concentration at which binding is half-saturated. A high value points to weaker binding.

Ends that are not written are not given here.

B1: MDM2 18-125 (protein)
chain: QIPASEQETLVRPKPLLLKLLKSVGAQKDTYTMKEVLFYLGQYIMTKRLYDEKQQHIVYCSNDLLGDLFGVPSFSVKEHRKIYTMIYRNLVVVNQQESSDSGTSVSEN
B1 returned a Kd of 240 nM.
